From article PMC3689661, “Plant Kinesin-Like Calmodulin Binding Protein Employs Its Regulatory Domain for Dimerization” (PLoS ONE, 2013)

Assays:
[1] = biological target: KCBP (construct not stated, in the KCBP-KIC complex) (Arabidopsis); assay: SEC; Superdex-200 run of the KCBP-KIC complex that had been isolated on Ni-NTA agarose; in the presence of Ca2+
[2] = biological target: His-tagged KIC (Arabidopsis) (UniProt Q9ZPX9); assay: as above
[3] = biological target: the molecule itself; assay: SEC; Superdex 200 16/60; 50 mM Tris pH 7.5, 150 mM NaCl, 2 mM MgCl2, 0.1 mM ATP, 1 mM TCEP, and either 1 mM EGTA or 2 mM CaCl2; isolated proteins

## KCBP (construct not stated, in the KCBP-KIC complex) (domain or fragment)
[1]
  stoichiometry N: 2

## His-tagged KIC (from UniProt Q9ZPX9 1-135) (natural protein)
[2]
  stoichiometry N: 2

B1: Arabidopsis KCBP (884–1253) (domain or fragment, UniProt Q9FHN8 884-1253, looked up)
chain: DMKGKIRVYCRIRPLNEKESSEREKQMLTTVDEFTVEHPWKDDKRKQHIYDRVFDMRASQDDIFEDTKYLVQSAVDGYNVCIFAYGQTGSGKTFTIYGHESNPGLTPRATKELFNILKRDSKRFSFSLKAYMVELYQDTLVDLLLPKSARRLKLEIKKDSKGMVFVENVTTIPISTLEELRMILERGSERRHVSGTNMNEESSRSHLILSVVIESIDLQTQSAARGKLSFVDLAGSERVKKSGSAGCQLKEAQSINKSLSALGDVIGALSSGNQHIPYRNHKLTMLMSDSLGGNAKTLMFVNVSPAESNLDETYNSLLYASRVRTIVNDPSKHISSKEMVRLKKLVAYWKEQAGKKGEEEDLVDIEEDRT
notes: motor domain with intact regulatory helix and negative coil; pET28b construct encoding a tag-free protein; source: E. coli BL21(DE3), purified (Calmodulin-Sepharose 4B)
[3]
  stoichiometry N: 2

B2: Arabidopsis KCBP (820–1225) (domain or fragment, UniProt Q9FHN8 820-1225, looked up)
chain: NSDMLLLQNNLKELEELREMKEDIDRKNEQTAAILKMQGAQLAELEILYKEEQVLRKRYYNTIEDMKGKIRVYCRIRPLNEKESSEREKQMLTTVDEFTVEHPWKDDKRKQHIYDRVFDMRASQDDIFEDTKYLVQSAVDGYNVCIFAYGQTGSGKTFTIYGHESNPGLTPRATKELFNILKRDSKRFSFSLKAYMVELYQDTLVDLLLPKSARRLKLEIKKDSKGMVFVENVTTIPISTLEELRMILERGSERRHVSGTNMNEESSRSHLILSVVIESIDLQTQSAARGKLSFVDLAGSERVKKSGSAGCQLKEAQSINKSLSALGDVIGALSSGNQHIPYRNHKLTMLMSDSLGGNAKTLMFVNVSPAESNLDETYNSLLYASRVRTIVNDPSKHISSKEMVRL
notes: with the predicted N-terminal dimerization motif, without the regulatory helix; pET32 Xa/Lic; the tag's removal is told only in the general purification methods; the motility assay held motors by an anti-His antibody; also called N-terminal dimer of KCBP without the regulatory helix; source: E. coli BL21(DE3), purified (Ni-NTA, TEV-protease); not shown: His6-Trx, N-terminal, cleaved
[3]
  stoichiometry N: 2

B3: full length Arabidopsis KIC (1–135) (natural protein, UniProt Q9ZPX9 1-135, looked up)
chain: MEPTEKSMLLETTSTTKMETKYEDMLPVMAEKMDVEEFVSELCKGFSLLADPERHLITAESLRRNSGILGIEGMSKEDAQGMVREGDLDGDGALNQTEFCVLMVRLSPEMMEDAETWLEKALTQELCNHNLSSMP
notes: KIC, Ca2+ ion sensor and regulator of KCBP, Arabidopsis, residues 1-135; The tag's removal is told only in the general purification methods; source: E. coli BL21(DE3), purified (Ni-NTA, TEV-protease); not shown: His6, N-terminal, cleaved
[3]
  stoichiometry N: 2

B4: Arabidopsis KIC (29–135) (domain or fragment, UniProt Q9ZPX9 29-135, looked up)
chain: MAEKMDVEEFVSELCKGFSLLADPERHLITAESLRRNSGILGIEGMSKEDAQGMVREGDLDGDGALNQTEFCVLMVRLSPEMMEDAETWLEKALTQELCNHNLSSMP
notes: KIC, Ca2+ ion sensor and regulator of KCBP, Arabidopsis, residues 29-135; The results speak of a deletion of the first 35 N-terminal residues; The tag's removal is told only in the general purification methods; source: E. coli BL21(DE3), purified (Ni-NTA, TEV-protease); not shown: His6-TRX, N-terminal, cleaved
[3]
  stoichiometry N: 2
